Sequences and labels used below:
B1: 3-28 (VHH, not shown: a dimerising Fc or GST)
VHH: EVQLVESGGGLVQPGGSLRLSCAASGFTFRRYDMGWFRQAPGKEREFVSAISGGLAYYADSVKGRFTISADNSKNTAYLQMNSLKPEDTAVYYCAVDLSGDAVYDWGQGTLVTVSS
B2: 5A-1 (VHH)
VHH: EVQLVESGGGLVQPGGSLRLSCAASGGTFSSIGMGWFRQAPGKEREFVAAISWDGGATAYADSVKGRFTISADNSKNTAYLQMNSLKPEDTAVYYCAKEDVGKPFDWGQGTLVTVSS
B3: 7-30 (VHH, not shown: a dimerising Fc or GST)
VHH: EVQLVESGGGLVQPGGSLRLSCAASGRTFSMHAMGWFRQAPGKEREFVASISSQGRTNYADSVKGRFTISADNSKNTAYLQMNSLKPEDTAVYYCAAEVRNGSDYLPIDWGQGTLVTVSS
B4: 6A-3 (VHH)
VHH: EVQLVESGGGLVQPGGSLRLSCAASGFTFSPSWMGWFRQAPGKEREFVATINEYGGRNYADSVKGRFTISADNSKNTAYLQMNSLKPEDTAVYYCARVDRDFDYWGQGTLVTVSS
B5: 6A-63 (VHH)
VHH: EVQLVESGGGLVQPGGSLRLSCAASGQTFNMGWFRQAPGKEREFVAAIGSGGSTSYADSVKGRFTISADNSKNTAYLQMNSLKPEDTAVYYCWRLGNDYFDYWGQGTLVTVSS
B6: 8-3 (VHH, not shown: a dimerising Fc or GST)
VHH: EVQLVESGGGLVQPGGSLRLSCAASGTTLDYYAMGWFRQAPGKEREFVAAISWSGGSTAYADSVKGRFTISADNSKNTAYLQMNSLKPEDTAVYYCAREDYYDSSGYSWGQGTLVTVSS
B7: 8-10 (VHH, not shown: a dimerising Fc or GST)
VHH: EVQLVESGGGLVQPGGSLRLSCAASGFIGNYHAMGWFRQAPGKEREFVAAVTWSGGTTNYADSVKGRFTISADNSKNTAYLQMNSLKPEDTAVYYCAREGYYYDSSGYPYYFDYWGQGTLVTVSS
B8: 7-29 (VHH, not shown: a dimerising Fc or GST)
VHH: EVQLVESGGGLVQPGGSLRLSCAASGRTHSIYPMGWFRQAPGKEREFVASITSYGDTNYADSVKGRFTISADNSKNTAYLQMNSLKPEDTAVYYCAARRWIPPGPIWGQGTLVTVSS
B9: 7-8 (VHH)
VHH: EVQLVESGGGLVQPGGSLRLSCAASGSTFTINAMGWFRQAPGKEREFVSGISHNGGTTNYADSVKGRFTISADNSKNTAYLQMNSLKPEDTAVYYCAADGVPEYSDYASGPVWGQGTLVTVSS
B10: 7-31 (VHH, not shown: a dimerising Fc or GST)
VHH: EVQLVESGGGLVQPGGSLRLSCAASGFTFSNYSMGWFRQAPGKEREFVAAIHWNGDSTAYADSVKGRFTISADNSKNTAYLQMNSLKPEDTAVYYCAAQTEDSAQYIWGQGTLVTVSS
B11: 3-17 (VHH, not shown: a dimerising Fc or GST)
VHH: EVQLVESGGGLVQPGGSLRLSCAASGRTSSSAVMGWFRQAPGKEREFVAAINRGGSTIYVDSVKGRFTISADNSKNTAYLQMNSLKPEDTAVYYCATGPYRSYFARSYLWGQGTLVTVSS
B12: 7-32 (VHH)
VHH: EVQLVESGGGLVQPGGSLRLSCAASGSTFSVNAMGWFRQAPGKEREFVAGVTRGGYTNYADSVKGRFTISADNSKNTAYLQMNSLKPEDTAVYYCAADGVPEYSDYASGPVWGQGTLVTVSS
B13: 7-24 (VHH, not shown: a dimerising Fc or GST)
VHH: EVQLVESGGGLVQPGGSLRLSCAASGFTFSRHAMNWFRQAPGKEREFVSTITGSGGSTNYADSVKGRFTISADNSKNTAYLQMNSLKPEDTAVYYCAREVGLYYYGSGSSSRRLLGRIDYYFDYWGQGTLVTVSS
B14: 7-6 (VHH, not shown: a dimerising Fc or GST)
VHH: EVQLVESGGGLVQPGGSLRLSCAASGRIFYPMGWFRQAPGKEREFVAAVRWSSTGIYYTQYADSVKGRFTISADNSKNTAYLQMNSLKPEDTAVYYCAAALSEVWRGSENLREGYDWGQGTLVTVSS
B15: 7-17 (VHH, not shown: a dimerising Fc or GST)
VHH: EVQLVESGGGLVQPGGSLRLSCAASGFSLDYYGMGWFRQAPGKEREFVAAITSGGTPHYADSVKGRFTISADNSKNTAYLQMNSLKPEDTAVYYCASAYNPGIGYDWGQGTLVTVSS
B16: 7-21 (VHH)
VHH: EVQLVESGGGLVQPGGSLRLSCAASGRTISRYTMGWFRQAPGKEREFVASITSGGSTAYADSVKGRFTISADNSKNTAYLQMNSLKPEDTAVYYCAKEDVGKPFDWGQGTLVTVSS
B17: 7-45 (VHH)
VHH: B16 VHH with I29L, A58N
B18: 7-22 (VHH, not shown: a dimerising Fc or GST)
VHH: B16 VHH with S30T, E98Q
B19: 7-41 (VHH)
VHH: B16 VHH with I29F, R31T, T33V, T52S, G54R, S56I, A58H
B20: 7-40 (VHH)
VHH: B16 VHH with I29F, S30R, S53K, G54F, A58N
B21: 8-06 (VHH, not shown: a dimerising Fc or GST)
VHH: EVQLVESGGGLVQPGGSLRLSCAASGFTFDYYAMGWFRQAPGKEREFVSAIDSEGRTSYADSVKGRFTISADNSKNTAYLQMNSLKPEDTAVYYCARWGPFDIWGQGTLVTVSS
notes: also called 8-6
B22: 3-24 (VHH, not shown: a dimerising Fc or GST)
VHH: EVQLVESGGGLVQPGGSLRLSCAASGINFSRYGMGWFRQAPGKEREFVASITYLGRTNYADSVKGRFTISADNSKNTAYLQMNSLKPEDTAVYYCALRVRPYGQYDWGQGTLVTVSS

Numbering of substitutions follows the chain as printed.

One assay has as its target T1, Antibody 178-08_His 501.V2 (27079) (SARS-CoV-2, UniProt P0DTC2 14-685).
T1 construct: domain: S1; also called TB178-8
The experiment in a line: Carterra SPR.
On to B1, for which the Kd (in general, the concentration at which binding is half-saturated) was found to be 22 nM.

Another assay concerns the target T2, Antibody 178-10_His CA_W152C_L452R_D614G (27081) (SARS-CoV-2, UniProt P0DTC2 14-685).
T2 construct: domain: S1; also called CA variant S1; California variant S1
As to the kind of experiment: Carterra SPR.
Consider B2, for which the Kd is 12.7 nM.
B3 had a Kd of 55.9 nM.
In the case of B4, binding was put at a Kd of 26.8 nM.
Consider B5, for which the binding result is given as “no binding”.

The next assay addresses T3, Antibody 178-09_His B.1.1.7 (27080) (SARS-CoV-2, UniProt P0DTC2 14-685).
T3 construct: domain: S1; also called TB178-9
The experiment in a line: Carterra SPR.
Molecule B1 displayed a Kd of 16.6 nM.
With B3, the affinity, expressed as Kd, was 32 nM.

Another assay has as its target T1, Antibody 178-08_His 501.V2 (27079). As to the kind of experiment: Carterra SPR. This is another data set of the same source.
In turn, B1 returned a Kd of 22 nM.
B6 yielded a Kd of 1.7 nM.
On to B7, for which the binding result was “no binding”.
B8: the binding result is given as “no binding”.
Take B9: the binding result is reported as “no binding”.
As for B10, the binding result is listed as “no binding”.
With B11, the binding result is “no binding”.
On the same count and under the same terms, the value for B3 was “no binding”; that for B12 was “no binding”.
In the case of B13, the binding result is “no binding”.
Still for that read-out and setting: the value for B14 was “no binding”; that for B15 was “no binding”; that for B16 was “no binding”.
Same read-out and setting: the value for B17 was “no binding”; that for B18 was “no binding”; that for B19 was “no binding”.
Regarding B20, the binding result is “no binding”.
Consider B21, for which the binding result was “no binding”.
As for B22, binding was put at a Kd of 586 nM.

A further assay concerns the target T2, Antibody 178-10_His …. The experiment in a line: Carterra SPR. This is another data set of the same source.
Regarding B1, the binding result is recorded as “no binding”.
In turn, B6 had a Kd of 100 nM.
Take B7: the binding result was “no binding”.
With B8, the binding result is “no binding”.
Regarding B9, the binding result is “no binding”.
For B10, the binding result is on record as “no binding”.
For the molecule B11, the binding result was “no binding”.
On to B3, for which the Kd amounted to 55.9 nM.
Turning to B12, the binding result is given as “no binding”.
Take B13: the binding result is given as “no binding”.
On to B14, for which the binding result was “no binding”.
B15: the binding result was “no binding”.
As to B16, the affinity, expressed as Kd, was 277 nM.
B17: the binding result is listed as “no binding”.
Turning to B18, the Kd was found to be 698 nM.
As to B19, binding was put at a Kd of 95.5 nM.
On to B20, for which the binding result is reported as “no binding”.
For the molecule B21, the binding result is “no binding”.
For the molecule B22, the binding result is given as “no binding”.

For a further assay, the target named is T4, S1 RBD L452R E484Q (Acro) (SARS-CoV-2, UniProt P0DTC2 319-537).
T4 construct: domain: S1 RBD; also called SARS-COV-2 RBD India Var; L452R E484Q S1; India variant mutation L452R E484Q
As to the kind of experiment: Carterra SPR.
As for B1, the binding result is given as “no binding”.
The same measure, in the same setting: the value for B6 was “no binding”; that for B8 was “no binding”; that for B9 was “no binding”.
Same read-out and setting: with B10 the entry was “no binding”; with B11, “no binding”.
For the molecule B3, the binding result is recorded as “no binding”.
Still for that read-out and setting: the value for B12 was “no binding”; that for B13 was “no binding”.
With B14, the binding result is “no binding”.
B16: the binding result is “no binding”.
As to B17, the binding result is recorded as “no binding”.
Take B18: the binding result is reported as “no binding”.
As to B19, the binding result is “no binding”.
With B20, the binding result was “no binding”.
Still for that read-out and setting: the value for B22 was “no binding”.

The next assay addresses T3, Antibody 178-09_His B.1.1.7 (27080). The experiment in a line: Carterra SPR. The source holds these as a separate data set.
For the molecule B1, the equilibrium dissociation constant (Kd) turned out to be 16.6 nM.
As to B6, the Kd amounted to 40.5 nM.
Still for that read-out and setting: the value for B7 was 377 nM; that for B8 was 54.8 nM.
With B9, the binding result is on record as “no binding”.
Turning to B10, the Kd is 388 nM.
As for B11, the binding result was “no binding”.
Molecule B3 showed a Kd of 32 nM.
Same read-out and setting: with B12 the figure was 62.4 nM.
B13: the binding result is “no binding”.
In turn, B14 gave a Kd of 42.4 nM.
Same read-out and setting: with B15 the figure was 39.8 nM.
On to B16, for which the Kd worked out at 35.6 nM.
B17 displayed a Kd of 43.4 nM.
Turning to B18, the equilibrium dissociation constant (Kd) amounted to 41.7 nM.
The molecule B19 came in with a Kd of 35.6 nM.
As for B20, the binding result is given as “no binding”.
B21 yielded a Kd of 141 nM.
Still for that read-out and setting: with B22 the figure was 2610 nM.

The values above are taken from patent US20230265217A1 (TWIST BIOSCIENCE, published 2023).
